Results taken from US9062100B2, “Anti-human TROP-2 antibody having anti-tumor activity in vivo” (LIVTECH, INC., dated 2015).
Where no end group is shown, it is not given here.

What was measured:
human TROP-2 (hTROP-2) [1] = biological target: T1, human TROP-2 (hTROP-2) (human); assay: FACS on PK-59 cells
T1 chain: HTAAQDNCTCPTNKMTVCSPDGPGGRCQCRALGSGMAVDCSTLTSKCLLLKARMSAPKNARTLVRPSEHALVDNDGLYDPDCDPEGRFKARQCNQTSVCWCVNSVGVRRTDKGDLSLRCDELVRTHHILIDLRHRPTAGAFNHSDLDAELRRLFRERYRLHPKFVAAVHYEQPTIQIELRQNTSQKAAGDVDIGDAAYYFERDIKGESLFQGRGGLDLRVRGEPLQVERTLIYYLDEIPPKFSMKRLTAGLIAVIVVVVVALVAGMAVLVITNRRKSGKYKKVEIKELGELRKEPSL

human TROP-2 (hTROP-2) [2] = biological target: T1, human TROP-2 (hTROP-2); assay: FACS on BxPC-3 cells
Table 9 peptide No. 26 = Table 9 peptide No. 26 (human); assay: PEPSCAN CLIPS peptide ELISA
Table 9 peptide No. 27 = biological target: T2, Table 9 peptide No. 27 (human, not fully specified); assay: PEPSCAN CLIPS peptide ELISA
T2 peptide: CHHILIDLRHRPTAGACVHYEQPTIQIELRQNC

Table 9 peptide No. 28 = biological target: T3, Table 9 peptide No. 28 (human, not fully specified); assay: PEPSCAN CLIPS peptide ELISA
T3 peptide: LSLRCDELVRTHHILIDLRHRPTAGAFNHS

Table 9 peptide No. 29 = Table 9 peptide No. 29 (human); assay: PEPSCAN CLIPS peptide ELISA
Table 9 peptide No. 1 = biological target: T4, Table 9 peptide No. 1 (human, not fully specified); assay: PEPSCAN CLIPS peptide ELISA
T4 peptide: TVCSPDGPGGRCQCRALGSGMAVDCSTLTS

Table 9 peptide No. 2 = biological target: T5, Table 9 peptide No. 2 (human, not fully specified); assay: PEPSCAN CLIPS peptide ELISA
T5 peptide: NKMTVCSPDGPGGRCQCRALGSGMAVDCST

Table 9 peptide No. 3 = biological target: T6, Table 9 peptide No. 3 (human, not fully specified); assay: PEPSCAN CLIPS peptide ELISA
T6 peptide: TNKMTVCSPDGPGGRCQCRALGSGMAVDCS

Table 9 peptide No. 4 = biological target: T7, Table 9 peptide No. 4 (human, not fully specified); assay: PEPSCAN CLIPS peptide ELISA
T7 peptide: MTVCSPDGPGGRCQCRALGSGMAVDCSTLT

Table 9 peptide No. 5 = biological target: T8, Table 9 peptide No. 5 (human, not fully specified); assay: PEPSCAN CLIPS peptide ELISA
T8 peptide: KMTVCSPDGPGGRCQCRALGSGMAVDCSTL

Table 9 peptide No. 6 = biological target: T9, Table 9 peptide No. 6 (human, not fully specified); assay: PEPSCAN CLIPS peptide ELISA
T9 peptide: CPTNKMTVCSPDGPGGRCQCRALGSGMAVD

Table 9 peptide No. 7 = biological target: T10, Table 9 peptide No. 7 (human, not fully specified); assay: PEPSCAN CLIPS peptide ELISA
T10 peptide: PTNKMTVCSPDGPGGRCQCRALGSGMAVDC

Table 9 peptide No. 8 = biological target: T11, Table 9 peptide No. 8 (human, not fully specified); assay: PEPSCAN CLIPS peptide ELISA
T11 peptide: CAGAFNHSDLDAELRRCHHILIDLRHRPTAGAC

Table 9 peptide No. 9 = biological target: T12, Table 9 peptide No. 9 (human, not fully specified; cysteine pairing not given here); assay: PEPSCAN CLIPS peptide ELISA
T12 peptide: CTHHILIDLRHRPTAGC

Table 9 peptide No. 10 = biological target: T13, Table 9 peptide No. 10 (human, not fully specified); assay: PEPSCAN CLIPS peptide ELISA
T13 peptide: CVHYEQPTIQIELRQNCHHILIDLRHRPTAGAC

Table 9 peptide No. 11 = biological target: T14, Table 9 peptide No. 11 (human, not fully specified); assay: PEPSCAN CLIPS peptide ELISA
T14 peptide: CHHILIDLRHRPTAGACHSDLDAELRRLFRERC

Table 9 peptide No. 12 = biological target: T15, Table 9 peptide No. 12 (human, not fully specified); assay: PEPSCAN CLIPS peptide ELISA
T15 peptide: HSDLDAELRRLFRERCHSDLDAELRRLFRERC

Table 9 peptide No. 13 = biological target: T16, Table 9 peptide No. 13 (human, not fully specified); assay: PEPSCAN CLIPS peptide ELISA
T16 peptide: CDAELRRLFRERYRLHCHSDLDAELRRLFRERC

Table 9 peptide No. 14 = biological target: T17, Table 9 peptide No. 14 (human, not fully specified; cysteine pairing not given here); assay: PEPSCAN CLIPS peptide ELISA
T17 peptide: CDAELRRLFRERYRLHCPK

Table 9 peptide No. 15 = biological target: T18, Table 9 peptide No. 15 (human, not fully specified); assay: PEPSCAN CLIPS peptide ELISA
T18 peptide: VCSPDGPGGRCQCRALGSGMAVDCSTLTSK

Table 9 peptide No. 16 = biological target: T19, Table 9 peptide No. 16 (human, not fully specified); assay: PEPSCAN CLIPS peptide ELISA
T19 peptide: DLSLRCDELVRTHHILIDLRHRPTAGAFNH

Table 9 peptide No. 17 = biological target: T20, Table 9 peptide No. 17 (human, not fully specified); assay: PEPSCAN CLIPS peptide ELISA
T20 peptide: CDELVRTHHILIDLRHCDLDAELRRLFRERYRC

Table 9 peptide No. 18 = biological target: T21, Table 9 peptide No. 18 (human, not fully specified; cysteine pairing not given here); assay: PEPSCAN CLIPS peptide ELISA
T21 peptide: CFQGRGGLDLRVRGEPC

Table 9 peptide No. 19 = biological target: T22, Table 9 peptide No. 19 (human, not fully specified); assay: PEPSCAN CLIPS peptide ELISA
T22 peptide: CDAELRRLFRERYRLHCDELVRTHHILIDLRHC

Table 9 peptide No. 20 = biological target: T23, Table 9 peptide No. 20 (human, not fully specified); assay: PEPSCAN CLIPS peptide ELISA
T23 peptide: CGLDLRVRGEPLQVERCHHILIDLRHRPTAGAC

Table 9 peptide No. 21 = biological target: T24, Table 9 peptide No. 21 (human, not fully specified); assay: PEPSCAN CLIPS peptide ELISA
T24 peptide: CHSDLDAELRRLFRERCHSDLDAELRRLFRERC

Table 9 peptide No. 22 = biological target: T25, Table 9 peptide No. 22 (human, not fully specified); assay: PEPSCAN CLIPS peptide ELISA
T25 peptide: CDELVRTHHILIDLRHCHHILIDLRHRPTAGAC

Table 9 peptide No. 23 = biological target: T26, Table 9 peptide No. 23 (human, not fully specified); assay: PEPSCAN CLIPS peptide ELISA
T26 peptide: T22 peptide

Table 9 peptide No. 24 = biological target: T27, Table 9 peptide No. 24 (human, not fully specified); assay: PEPSCAN CLIPS peptide ELISA
T27 peptide: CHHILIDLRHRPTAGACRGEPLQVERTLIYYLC

Table 9 peptide No. 25 = biological target: T28, Table 9 peptide No. 25 (human, not fully specified; cysteine pairing not given here); assay: PEPSCAN CLIPS peptide ELISA
T28 peptide: CSPDGPGGRCQCRAL

[3] = biological target: T29, recombinant protein of the extracellular region of hTROP-2 (human); assay: ELISA of free antibody after equilibration with antigen in solution
T29 sequence: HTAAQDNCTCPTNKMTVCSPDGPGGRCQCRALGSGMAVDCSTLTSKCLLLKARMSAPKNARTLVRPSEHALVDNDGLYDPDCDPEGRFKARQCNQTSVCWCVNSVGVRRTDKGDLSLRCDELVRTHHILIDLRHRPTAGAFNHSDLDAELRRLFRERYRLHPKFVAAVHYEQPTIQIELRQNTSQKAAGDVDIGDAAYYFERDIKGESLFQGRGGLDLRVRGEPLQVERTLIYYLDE

Sequence of Table 9 peptide No. 29 (human) (peptide, as listed by the source): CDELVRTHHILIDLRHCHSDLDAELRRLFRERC
Sequence of Table 9 peptide No. 26 (human) (peptide, as listed by the source): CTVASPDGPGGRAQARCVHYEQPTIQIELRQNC

mean fluorescence intensity, times that with PE-labeled anti-mouse IgG only (human TROP-2 (hTROP-2) [1]): 122 times
mean fluorescence intensity, times that with PE-labeled anti-mouse IgG only (human TROP-2 (hTROP-2) [2]): 121 times
binding of K5-116-2-1 (Table 9 peptide No. 26): 1220
binding of K5-116-2-1 (Table 9 peptide No. 27): 1220
binding of K5-116-2-1 (Table 9 peptide No. 28): 1220
binding of K5-116-2-1 (Table 9 peptide No. 29): 1200
binding of K5-116-2-1 (Table 9 peptide No. 1): 2670
binding of K5-116-2-1 (Table 9 peptide No. 2): 2610
binding of K5-116-2-1 (Table 9 peptide No. 3): 2480
binding of K5-116-2-1 (Table 9 peptide No. 4): 2440
binding of K5-116-2-1 (Table 9 peptide No. 5): 2420
binding of K5-116-2-1 (Table 9 peptide No. 6): 2140
binding of K5-116-2-1 (Table 9 peptide No. 7): 1720
binding of K5-116-2-1 (Table 9 peptide No. 8): 1640
binding of K5-116-2-1 (Table 9 peptide No. 9): 1590
binding of K5-116-2-1 (Table 9 peptide No. 10): 1500
binding of K5-116-2-1 (Table 9 peptide No. 11): 1480
binding of K5-116-2-1 (Table 9 peptide No. 12): 1470
binding of K5-116-2-1 (Table 9 peptide No. 13): 1460
binding of K5-116-2-1 (Table 9 peptide No. 14): 1440
binding of K5-116-2-1 (Table 9 peptide No. 15): 1430
binding of K5-116-2-1 (Table 9 peptide No. 16): 1420
binding of K5-116-2-1 (Table 9 peptide No. 17): 1390
binding of K5-116-2-1 (Table 9 peptide No. 18): 1380
binding of K5-116-2-1 (Table 9 peptide No. 19): 1370
binding of K5-116-2-1 (Table 9 peptide No. 20): 1340
binding of K5-116-2-1 (Table 9 peptide No. 21): 1330
binding of K5-116-2-1 (Table 9 peptide No. 22): 1320
binding of K5-116-2-1 (Table 9 peptide No. 23): 1270
binding of K5-116-2-1 (Table 9 peptide No. 24): 1230
binding of K5-116-2-1 (Table 9 peptide No. 25): 1230
Kd [3]: 0.0269 nM
B1: anti-hTROP-2 monoclonal antibody K5-116-2-1 (antibody, V domains shown)
VH: QVQLQQPGAELVRPGASVKLSCKASGYTFTSYWITWVKQRPGQGLEWIGNIYPSDSYTNYNQKFRDKATLTVDKSSSTAYMQLSSPTSEDSAVYYCSALFDYWGQGTTLTVSS
VL: DILLTQSPAILSVSPGERVSFSCRASQSIGTSIHWYQQRTNGSPRLLIKYASESISGIPSRFSGSGSGTDFILSINSVESEDIADYYCQQSNSWPFTFGSGTKLEIK
